Reference: IntAct's records for PubMed 17053785

B1: Partitioning defective 3 homolog (Homo sapiens), Q8TEW0 (parent)
chain: MKVTVCFGRTRVVVPCGDGHMKVFSLIQQAVTRYRKAIAKDPNYWIQVHRLEHGDGGILDLDDILCDVADDKDRLVAVFDEQDPHHGGDGTSASSTGTQSPEIFGSELGTNNVSAFQPYQATSEIEVTPSVLRANMPLHVRRSSDPALIGLSTSVSDSNFSSEEPSRKNPTRWSTTAGFLKQNTAGSPKTCDRKKDENYRSLPRDTSNWSNQFQRDNARSSLSASHPMVGKWLEKQEQDEDGTEEDNSRVEPVGHADTGLEHIPNFSLDDMVKLVEVPNDGGPLGIHVVPFSARGGRTLGLLVKRLEKGGKAEHENLFRENDCIVRINDGDLRNRRFEQAQHMFRQAMRTPIIWFHVVPAANKEQYEQLSQSEKNNYYSSRFSPDSQYIDNRSVNSAGLHTVQRAPRLNHPPEQIDSHSRLPHSAHPSGKPPSAPASAPQNVFSTTVSSGYNTKKIGKRLNIQLKKGTEGLGFSITSRDVTIGGSAPIYVKNILPRGAAIQDGRLKAGDRLIEVNGVDLVGKSQEEVVSLLRSTKMEGTVSLLVFRQEDAFHPRELNAEPSQMQIPKETKAEDEDIVLTPDGTREFLTFEVPLNDSGSAGLGVSVKGNRSKENHADLGIFVKSIINGGAASKDGRLRVNDQLIAVNGESLLGKTNQDAMETLRRSMSTEGNKRGMIQLIVARRISKCNELKSPGSPPGPELPIETALDDRERRISHSLYSGIEGLDESPSRNAALSRIMGESGKYQLSPTVNMPQDDTVIIEDDRLPVLPPHLSDQSSSSSHDDVGFVTADAGTWAKAAISDSADCSLSPDVDPVLAFQREGFGRQSMSEKRTKQFSDASQLDFVKTRKSKSMDLGIADETKLNTVDDQKAGSPSRDVGPSLGLKKSSSLESLQTAVAEVTLNGDIPFHRPRPRIIRGRGCNESFRAAIDKSYDKPAVDDDDEGMETLEEDTEESSRSGRESVSTASDQPSHSLERQMNGNQEKGDKTDRKKDKTGKEKKKDRDKEKDKMKAKKGMLKGLGDMFRFGKHRKDDKIEKTGKIKIQESFTSEEERIRMKQEQERIQAKTREFRERQARERDYAEIQDFHRTFGCDDELMYGGVSSYEGSMALNARPQSPREGHMMDALYAQVKKPRNSKPSPVDSNRSTPSNHDRIQRLRQEFQQAKQDEDVEDRRRTYSFEQPWPNARPATQSGRHSVSVEVQMQRQRQEERESSQQAQRQYSSLPRQSRKNASSVSQDSWEQNYSPGEGFQSAKENPRYSSYQGSRNGYLGGHGFNARVMLETQELLRQEQRRKEQQMKKQPPSEGPSNYDSYKKVQDPSYAPPKGPFRQDVPPSPSQVARLNRLQTPEKGRPFYS

Variants of: B1
Settings: with csk_human CSK

effect of a mutation on the interaction	Variant
disrupting interaction	Y1127F
